# ± gives the standard deviation of the averaged measurements.
# What was measured:
# [1] = system: Saccharomyces cerevisiae; experiment: protein stability index of tFT-peptide fusion (C-terminal peptide) (PSI (0-1 scale)); higher = more stable (slower turnover)
# Description: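 MPS profiling in S. cerevisiae of the tFT-X12 degron library: putative degron peptides plus stable controls, 12 aa, fused to the C-terminus of a sfGFP-mCherry timer. Cells are FACS-sorted into 8 mCherry/sfGFP bins and deep-sequenced. PSI runs from 0 (unstable) to 1 (stable). Backgrounds are wild type, das1Δ and doa10Δ at 30 °C, and wild type, das1Δ, cdc34-1 and cdc53-1 at 37 °C; 2-3 technical replicates each.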
# [2] = system: Saccharomyces cerevisiae; experiment: as above; conditions: genetic background: wild type; temperature: 30 C
# [3] = genetic background: cdc34-1, temperature: 37 C
# [4] = genetic background: cdc53-1, temperature: 37 C
# [5] = genetic background: das1 deletion, temperature: 30 C
# [6] = genetic background: das1 deletion, temperature: 37 C
# [7] = genetic background: doa10 deletion, temperature: 30 C
# [8] = genetic background: wild type, temperature: 30 C
# [9] = genetic background: wild type, temperature: 37 C
# 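Further: PSI is a weighted mean of sequencing reads over stability bins, variants kept only with over 10 reads, mCherry proximal and sfGFP distal, peptide attached via GGGS linker.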
Sequence,"protein stability index [1, 3]","protein stability index [1, 4]","protein stability index [1, 5]","protein stability index [1, 6]","protein stability index [1, 7]","protein stability index [1, 8]","protein stability index [1, 9]",protein stability index [2]
NAAVQSGGRVAG,0.67 ± 0.043,0.722 ± 0.05,0.638 ± 0.01,0.733 ± 0.0013,0.645 ± 0.025,0.646 ± 0.0076,0.696 ± 0.016,
PACPPLPPRSPS,0.634 ± 0.0068,0.7142 ± 0.0047,0.693 ± 0.028,0.737 ± 0.017,0.688 ± 0.069,0.7 ± 0.015,0.7 ± 0.024,
RPPHPPPATFLS,0.617 ± 0.064,0.7 ± 0.0084,0.679 ± 0.018,0.727 ± 0.0097,0.226 ± 0.025,0.253 ± 0.025,0.487 ± 0.021,
RWRLWVGWGVVG,0.621 ± 0.034,0.688 ± 0.022,0.521 ± 0.0056,0.691 ± 0.039,0.425 ± 0.029,0.368 ± 0.078,0.533 ± 0.059,
VGGREVSRAGGG,0.62 ± 0.048,0.672 ± 0.0081,0.49 ± 0.027,0.578 ± 0.06,0.477 ± 0.0076,0.481 ± 0.011,0.534 ± 0.041,
VSVFWVFLLVAG,0.223 ± 0.0059,0.375 ± 0.011,0.245 ± 0.024,0.4401 ± 0.0035,0.189 ± 0.012,0.218 ± 0.024,0.383 ± 0.016,
WNRSAFLSSGTI,,,,,,,,0.67578 ± 3.2e-05
WNRVPEWTREPL,,,,,,,,0.719 ± 0.022
WNSISGRTVVYM,,,,,,,,0.709 ± 0.092
WPAFYTSRLLLR,,,,,,,,0.615 ± 0.034
WPPPPPSLLLLC,0.4666 ± 0.0016,0.548 ± 0.022,0.473 ± 0.016,0.611 ± 0.017,0.127 ± 0.0019,0.149 ± 0.019,0.177 ± 0.024,
